Assay [1] concerns the target TOX (UniProt Q66JW3). The assay can be described thus: anti-TOX IP from EL4 nuclear extract, LC-MS/MS, MiST vs IgG control.
Assay [2] concerns the target TOX (UniProt Q66JW3). The assay can be described thus: TOX IP-MS, EL4 nuclear extract, MiST; row of the bait itself.

TOX, sequence (Q66JW3 whole entry): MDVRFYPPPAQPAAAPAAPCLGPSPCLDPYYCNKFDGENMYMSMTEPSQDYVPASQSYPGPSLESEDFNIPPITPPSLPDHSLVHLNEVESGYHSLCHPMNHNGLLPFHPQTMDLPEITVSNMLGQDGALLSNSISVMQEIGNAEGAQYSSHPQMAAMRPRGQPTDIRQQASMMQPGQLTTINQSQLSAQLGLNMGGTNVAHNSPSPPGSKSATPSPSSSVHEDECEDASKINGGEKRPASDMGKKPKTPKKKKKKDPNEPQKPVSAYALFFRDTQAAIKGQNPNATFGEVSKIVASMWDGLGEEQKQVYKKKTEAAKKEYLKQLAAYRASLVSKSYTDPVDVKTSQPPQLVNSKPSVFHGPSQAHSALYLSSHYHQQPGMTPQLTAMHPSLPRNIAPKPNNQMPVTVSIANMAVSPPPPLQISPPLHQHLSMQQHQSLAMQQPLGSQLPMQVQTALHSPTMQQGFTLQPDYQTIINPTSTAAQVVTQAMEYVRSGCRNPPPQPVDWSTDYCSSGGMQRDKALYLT

In the assay with TOX [1], Rbm25 (from UniProt B2RY56 1-838) registered an Abundance of 9.24e-06, a MiST Score of 0.755, a Reproducibility of 0.601 and a Specificity of 0.831.
In the assay with TOX [1], Rrp1 (from UniProt P56183 1-494) yielded an Abundance of 9e-06, a MiST Score of 0.753, a Reproducibility of 0.976 and a Specificity of 0.659.
In the assay with TOX [1], Rsl1d1 (from UniProt Q8BVY0 1-452) came in with an Abundance of 0.000211, a MiST Score of 0.759, a Reproducibility of 0.984 and a Specificity of 0.665.
In the assay with TOX [1], “Soat1 (from UniProt Q61263 1-540) (enzyme)” registered an Abundance of 5.75e-06, a MiST Score of 0.762, a Reproducibility of 0.249 and a Specificity of 1.
As for Thoc6 (from UniProt Q5U4D9 1-341), in the assay with TOX [1], the Abundance stood at 3.97e-05, the MiST Score came to 0.76, the Reproducibility was 0.994 and the Specificity was 0.661.
In the assay with TOX [1], “Top3b (from UniProt Q9Z321 1-862) (enzyme)” gave an Abundance of 8.1e-07, a MiST Score of 0.752, a Reproducibility of 0.541 and a Specificity of 0.854.
For “Yme1l1 (from UniProt O88967 1-715) (enzyme)”, in that order: 1.45e-05, 0.75, 0.988 and 0.65.
In the case of anti-TOX antibody (Abcam, ab155768), in the assay with TOX [2], the Abundance stood at 0.00704, the MiST Score stood at 0.976, the Reproducibility turned out to be 0.964 and the Specificity turned out to be 0.99.

For the origin of these results see patent US20210071139A1.
